Source: US20100048462A1, “TRUNCATED PTH PEPTIDES WITH A CYCLIC CONFORMATION” (Zealand Pharma A/S, priority 2006, published 2010)
Bridge positions count the residues as written; N and C are the ends. Square brackets hold non-standard residues; d marks the D form. Peptide text beside a SMILES is read from it. hArg = N=C(N)NCCCC[C@H](N)C(=O)O; Ac5c = NC1(C(=O)O)CCCC1; Abu = CC[C@H](N)C(=O)O; Aib = CC(C)(N)C(=O)O

Key:
Saos-2 PTH1R [1] = target: T1, Saos-2 PTH1R (Homo sapiens, UniProt Q03431); test: cAMP-efficacy assay in Saos-2 cells; assay type: cell-based
T1 construct: endogenous in cells; host or cells: Saos-2
T1 sequence (Q03431 27-593): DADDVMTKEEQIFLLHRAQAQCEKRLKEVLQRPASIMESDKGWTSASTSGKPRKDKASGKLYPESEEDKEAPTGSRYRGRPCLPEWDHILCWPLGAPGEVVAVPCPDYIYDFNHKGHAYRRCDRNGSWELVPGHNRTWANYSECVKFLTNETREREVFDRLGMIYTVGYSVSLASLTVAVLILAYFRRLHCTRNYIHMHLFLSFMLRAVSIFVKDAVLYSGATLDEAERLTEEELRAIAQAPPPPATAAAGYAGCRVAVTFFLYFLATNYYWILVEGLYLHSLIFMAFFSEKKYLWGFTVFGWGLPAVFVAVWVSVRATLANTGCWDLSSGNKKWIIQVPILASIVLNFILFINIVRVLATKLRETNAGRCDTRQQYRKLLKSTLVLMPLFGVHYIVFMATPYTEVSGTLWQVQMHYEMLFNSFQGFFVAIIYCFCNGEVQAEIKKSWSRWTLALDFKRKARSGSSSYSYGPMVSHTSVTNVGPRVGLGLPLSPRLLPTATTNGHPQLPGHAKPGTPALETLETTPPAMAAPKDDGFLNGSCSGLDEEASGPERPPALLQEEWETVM
In short: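 cAMP accumulation was assayed by FlashPlate after 15 min peptide stimulation at 37 °C of Saos-2 cells in Tyrode's buffer containing 100 μM IBMX and 0.1% BSA, with the reaction stopped by ice-cold HCl. Variable-slope logistic fitting gave EC50/pEC50, Hill coefficient and Emax, with single or triplicate points.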

CYP2D6 = CYP2D6 (Homo sapiens, UniProt P10635); test: CYP2D6 inhibition in pooled human liver microsomes; assay type: in vitro ADME; design: Pooled human liver microsomes (HLM, final concentration 0.05 mg protein/mL); tissue BD Biosciences 452161; host or cells: pooled human liver microsomes; settings: 10 μM compound, dextrorphan formation rate
Chain of CYP2D6 (P10635 whole entry): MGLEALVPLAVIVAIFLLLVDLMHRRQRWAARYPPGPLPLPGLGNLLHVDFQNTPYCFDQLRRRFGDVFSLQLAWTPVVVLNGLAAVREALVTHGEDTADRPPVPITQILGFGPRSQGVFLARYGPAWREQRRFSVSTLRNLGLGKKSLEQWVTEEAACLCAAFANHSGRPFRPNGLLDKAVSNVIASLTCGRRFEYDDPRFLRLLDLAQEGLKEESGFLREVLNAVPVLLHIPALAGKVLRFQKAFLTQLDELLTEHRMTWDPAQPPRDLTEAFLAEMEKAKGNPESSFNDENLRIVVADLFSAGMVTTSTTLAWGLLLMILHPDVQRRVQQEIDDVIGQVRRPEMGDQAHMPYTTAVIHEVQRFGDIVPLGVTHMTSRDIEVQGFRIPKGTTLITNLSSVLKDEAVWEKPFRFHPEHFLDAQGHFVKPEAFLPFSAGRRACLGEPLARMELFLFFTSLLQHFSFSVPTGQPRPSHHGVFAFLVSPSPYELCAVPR
Protocol: Stock solutions of the test compounds (1 mM) were prepared in 50% isopropanol or 20% DMSO. Pooled human liver microsomes (HLM, final concentration 0.05 mg protein/mL) were mixed with phosphate buffer (0.1 M potassium phosphate, pH 7.4), CYP2D6 substrate (dextrometrorphan, 5 μM final concentration) and test compound (10 μM), quinidine (0.5 μM) or vehicle (0.2% DMSO or 0.5% isopropanol). The mixture was preincubated for 5 min at 37° C. prior to initiation of the reaction addition of a NADPH regenerating mixture (Final concentration: 1.25 mM NADP^+, 3.3 mM Glucose-6-phosphate, 3.3 mM MgCL2 and 0.4 U/mL glucose-6-phosphat dehydrogenase). After 5 minutes the reaction was stopped by addition of 0.25 volume stop reagent (94% acetonitrile, 6% acetic acid). Each experiment was performed in duplicate or triplicate.
The quantification of CYP2D6 product (dextrorphan) was performed by LC/MS/MS. After centrifugation for 5 min at 10.000 g, 40 μL of the supernatant was injected onto a C8 RP-HPLC column (XterraMS, C8, […], 50×2.1 mm). Dextrorphan was eluted by a linear gradient from 0 to 90% acetonitrile in 0.1% formic acid over 4 min using a flow rate of 0.15 ml/min. The concentration of dextrorphan in the reaction mixture was estimated from the peak area of the MS/MS transition (m/z 258.1>199) using an external calibration curve (Table 8).
The CYP2D6 activity in HLM was calculated as the metabolite formation rate: […]
Where, v is the formation rate, [metabolite] is the detected concentration of dextrorphan (pmol/mL) at the time (t, min) and [protein] is the protein concentration (mg/mL) in the reaction mixture. The influence of the test compounds on the CYP2D6 activity was calculated as % of the activity measured when incubated with the vehicle. The effect of CYP2D6 inhibitor (quinidine) was included as inhibition control within each batch analysis. A reduction in CYP2D6 activity to less than 70% of the vehicle control was considered significant.

Saos-2 PTH1R [2] = target: Saos-2 PTH1R (UniProt Q03431); test: cell-based or functional assay
[3] = cAMP, 100 μM IBMX, 37° C. 15 min, suffix of label = salt tested

Molecule: CC[C@H](C)[C@H](NC(=O)[C@H](CCC(=O)O)NC(=O)C(C)(C)NC(=O)[C@@H](NC(=O)C1(N)CCCC1)C(C)C)C(=O)N[C@@H](CCC(N)=O)C(=O)N[C@@H](CC(C)C)C(=O)N[C@@H](CCSC)C(=O)N[C@@H](Cc1c[nH]cn1)C(=O)N[C@@H](CC(N)=O)C(=O)N[C@@H](CC(C)C)C(=O)NCC(=O)N[C@@H](CCCCN)C(=O)N[C@@H](Cc1c[nH]cn1)C(=O)N[C@@H](CC(C)C)C(=O)N[C@@H](CC(N)=O)C(=O)N[C@@H](CC(=O)O)C(N)=O [SEQ ID NO: 1] (H-[Ac5c]V[Aib]EIQLMHNLGKHLND-NH2)
- pEC50 ± SEM (Saos-2 PTH1R [1]; [3]): inactive
- CYP2D6 activity (% of vehicle) (CYP2D6): 57 % of vehicle

Molecule: CC[C@H](C)[C@H](NC(=O)[C@H](CCC(=O)O)NC(=O)C(C)(C)NC(=O)[C@@H](NC(=O)C1(N)CCCC1)C(C)C)C(=O)N[C@@H](CCC(N)=O)C(=O)N[C@@H](CC(C)C)C(=O)N[C@@H](CCSC)C(=O)N[C@@H](Cc1c[nH]cn1)C(=O)N[C@@H](CCC(N)=O)C(=O)N[C@@H](CCCCNC(=N)N)C(=O)N[C@@H](C)C(=O)N[C@H]1CCCCNC(=O)C[C@@H](C(=O)O)NC(=O)[C@H](CC(N)=O)NC(=O)[C@H](CC(C)C)NC(=O)[C@H](Cc2c[nH]c3ccccc23)NC1=O [SEQ ID NO: 4, H-Ac5c-Val-Aib-Glu-Ile-Gln-Leu-Met-His-Gln-Har-Ala-Lys( )-Trp-Leu-Asn-Asp( )-OH] (H-[Ac5c]V[Aib]EIQLMHQ[hArg]AKWLND-OH; lactam 13-17)
- potency compared to linear / non-stabilized counterparts, in words (Saos-2 PTH1R [1]; cAMP): clearly higher potency
- EC50 (Saos-2 PTH1R [1]; [3]): 38 nM
- potency compared to linear / non-stabilized counterparts, in words (Saos-2 PTH1R [1]; cAMP, listed as 4): increased potencies
- potency compared to linear / non-stabilized counterparts, in words (Saos-2 PTH1R [1]; cAMP, listed as SEQ ID NO:4): higher potency
- Emax ± SEM (Saos-2 PTH1R [1]; relative effect to the control (SEQ ID NO: 32)): 1.11 ± 0.03
- CYP2D6 activity (% of vehicle) (CYP2D6): 89 % of vehicle

B1: H-Aib-Val-Ac5c-Glu-Ile-Gln-Leu-Leu-His-Gln-Har-Ala-Lys( )-Trp-Leu-Asn-Asp( )-NH2 (peptide)
chain: H-[Aib]V[Ac5c]EIQLLHQ[hArg]AKWLND-NH2
modifications: lactam 13-17
SMILES: CC[C@H](C)[C@H](NC(=O)[C@H](CCC(=O)O)NC(=O)C1(NC(=O)[C@@H](NC(=O)C(C)(C)N)C(C)C)CCCC1)C(=O)N[C@@H](CCC(N)=O)C(=O)N[C@@H](CC(C)C)C(=O)N[C@@H](CC(C)C)C(=O)N[C@@H](Cc1c[nH]cn1)C(=O)N[C@@H](CCC(N)=O)C(=O)N[C@@H](CCCCNC(=N)N)C(=O)N[C@@H](C)C(=O)N[C@H]1CCCCNC(=O)C[C@@H](C(N)=O)NC(=O)[C@H](CC(N)=O)NC(=O)[C@H](CC(C)C)NC(=O)[C@H](Cc2c[nH]c3ccccc23)NC1=O
- Emax, cAMP efficacy assay in Saos-2 cells (13T, trifluoroacetate salt) (relative to control (SEQ ID NO: 32)) (Saos-2 PTH1R [2]): 0.96
- pEC50, cAMP efficacy assay in Saos-2 cells (13T, trifluoroacetate salt) (Saos-2 PTH1R [2]): 7.27 -log(M)

B2: H-Ac5c-Val-Aib-Glu-Ile-Glu-Leu-Leu-His-Gln-Har-Ala-Lys( )-Trp-Leu-Asn-Asp( )-NH2 (peptide)
chain: H-[Ac5c]V[Aib]EIELLHQ[hArg]AKWLND-NH2
modifications: lactam 13-17
SMILES: CC[C@H](C)[C@H](NC(=O)[C@H](CCC(=O)O)NC(=O)C(C)(C)NC(=O)[C@@H](NC(=O)C1(N)CCCC1)C(C)C)C(=O)N[C@@H](CCC(=O)O)C(=O)N[C@@H](CC(C)C)C(=O)N[C@@H](CC(C)C)C(=O)N[C@@H](Cc1c[nH]cn1)C(=O)N[C@@H](CCC(N)=O)C(=O)N[C@@H](CCCCNC(=N)N)C(=O)N[C@@H](C)C(=O)N[C@H]1CCCCNC(=O)C[C@@H](C(N)=O)NC(=O)[C@H](CC(N)=O)NC(=O)[C@H](CC(C)C)NC(=O)[C@H](Cc2c[nH]c3ccccc23)NC1=O
- Emax, cAMP efficacy assay in Saos-2 cells (29T, trifluoroacetate salt) (relative to control (SEQ ID NO: 32)) (Saos-2 PTH1R [2]): 1.27
- pEC50, cAMP efficacy assay in Saos-2 cells (29T, trifluoroacetate salt) (Saos-2 PTH1R [2]): 6.95 -log(M)

B3: H-Ac5c-Val-Abu-Glu-Ile-Gln-Leu-Leu-His-Gln-Har-Ala-Lys( )-Trp-Leu-Asn-Asp( )-NH2 (peptide)
chain: H-[Ac5c]V[Abu]EIQLLHQ[hArg]AKWLND-NH2
modifications: lactam 13-17
SMILES: CC[C@H](NC(=O)[C@@H](NC(=O)C1(N)CCCC1)C(C)C)C(=O)N[C@@H](CCC(=O)O)C(=O)N[C@H](C(=O)N[C@@H](CCC(N)=O)C(=O)N[C@@H](CC(C)C)C(=O)N[C@@H](CC(C)C)C(=O)N[C@@H](Cc1c[nH]cn1)C(=O)N[C@@H](CCC(N)=O)C(=O)N[C@@H](CCCCNC(=N)N)C(=O)N[C@@H](C)C(=O)N[C@H]1CCCCNC(=O)C[C@@H](C(N)=O)NC(=O)[C@H](CC(N)=O)NC(=O)[C@H](CC(C)C)NC(=O)[C@H](Cc2c[nH]c3ccccc23)NC1=O)[C@@H](C)CC
- Emax, cAMP efficacy assay in Saos-2 cells (15T, trifluoroacetate salt) (relative to control (SEQ ID NO: 32)) (Saos-2 PTH1R [2]): 1.04
- pEC50, cAMP efficacy assay in Saos-2 cells (15T, trifluoroacetate salt) (Saos-2 PTH1R [2]): 7.22 -log(M)

B4: H-Ac5c-Val-Aib-Glu-Ile-Gln-Leu-Met-His-Gln-Arg-Ala-Lys( )-Trp-Leu-Asn-Asp( )-NH2 (peptide)
chain: H-[Ac5c]V[Aib]EIQLMHQRAKWLND-NH2
modifications: lactam 13-17
SMILES: CC[C@H](C)[C@H](NC(=O)[C@H](CCC(=O)O)NC(=O)C(C)(C)NC(=O)[C@@H](NC(=O)C1(N)CCCC1)C(C)C)C(=O)N[C@@H](CCC(N)=O)C(=O)N[C@@H](CC(C)C)C(=O)N[C@@H](CCSC)C(=O)N[C@@H](Cc1c[nH]cn1)C(=O)N[C@@H](CCC(N)=O)C(=O)N[C@@H](CCCNC(=N)N)C(=O)N[C@@H](C)C(=O)N[C@H]1CCCCNC(=O)C[C@@H](C(N)=O)NC(=O)[C@H](CC(N)=O)NC(=O)[C@H](CC(C)C)NC(=O)[C@H](Cc2c[nH]c3ccccc23)NC1=O
- Emax, cAMP efficacy assay in Saos-2 cells (25T, trifluoroacetate salt) (relative to control (SEQ ID NO: 32)) (Saos-2 PTH1R [2]): 1.04
- pEC50, cAMP efficacy assay in Saos-2 cells (25T, trifluoroacetate salt) (Saos-2 PTH1R [2]): 8.05 -log(M)

B5: H-Ac5c-Val-Aib-Glu-Ile-Gln-Phe-Leu-His-Gln-Har-Ala-Lys( )-Trp-Leu-Asn-Asp( )-NH2 (peptide)
chain: H-[Ac5c]V[Aib]EIQFLHQ[hArg]AKWLND-NH2
modifications: lactam 13-17
SMILES: CC[C@H](C)[C@H](NC(=O)[C@H](CCC(=O)O)NC(=O)C(C)(C)NC(=O)[C@@H](NC(=O)C1(N)CCCC1)C(C)C)C(=O)N[C@@H](CCC(N)=O)C(=O)N[C@@H](Cc1ccccc1)C(=O)N[C@@H](CC(C)C)C(=O)N[C@@H](Cc1c[nH]cn1)C(=O)N[C@@H](CCC(N)=O)C(=O)N[C@@H](CCCCNC(=N)N)C(=O)N[C@@H](C)C(=O)N[C@H]1CCCCNC(=O)C[C@@H](C(N)=O)NC(=O)[C@H](CC(N)=O)NC(=O)[C@H](CC(C)C)NC(=O)[C@H](Cc2c[nH]c3ccccc23)NC1=O
- Emax, cAMP efficacy assay in Saos-2 cells (27T, trifluoroacetate salt) (relative to control (SEQ ID NO: 32)) (Saos-2 PTH1R [2]): 0.92
- pEC50, cAMP efficacy assay in Saos-2 cells (27T, trifluoroacetate salt) (Saos-2 PTH1R [2]): 7.91 -log(M)

B6: H-Ac5c-Val-Aib-Glu-Ile-Gln-Leu-Met-His-Gln-Har-Ala-Lys( )-Trp-Leu-Asp-Asp( )-NH2 (peptide)
chain: H-[Ac5c]V[Aib]EIQLMHQ[hArg]AKWLDD-NH2
modifications: lactam 13-17
SMILES: CC[C@H](C)[C@H](NC(=O)[C@H](CCC(=O)O)NC(=O)C(C)(C)NC(=O)[C@@H](NC(=O)C1(N)CCCC1)C(C)C)C(=O)N[C@@H](CCC(N)=O)C(=O)N[C@@H](CC(C)C)C(=O)N[C@@H](CCSC)C(=O)N[C@@H](Cc1c[nH]cn1)C(=O)N[C@@H](CCC(N)=O)C(=O)N[C@@H](CCCCNC(=N)N)C(=O)N[C@@H](C)C(=O)N[C@H]1CCCCNC(=O)C[C@@H](C(N)=O)NC(=O)[C@H](CC(=O)O)NC(=O)[C@H](CC(C)C)NC(=O)[C@H](Cc2c[nH]c3ccccc23)NC1=O
- Emax, cAMP efficacy assay in Saos-2 cells (23T, trifluoroacetate salt) (relative to control (SEQ ID NO: 32)) (Saos-2 PTH1R [2]): 1.16
- pEC50, cAMP efficacy assay in Saos-2 cells (23T, trifluoroacetate salt) (Saos-2 PTH1R [2]): 7.48 -log(M)
